Positions count from the first letter of the chain named.
T1: human CCL17 (human, UniProt Q92583 24-94)
T1 construct: Biotinylated in the ELISA screens; also called huCCL17; Bt-huCCL17
T1 sequence: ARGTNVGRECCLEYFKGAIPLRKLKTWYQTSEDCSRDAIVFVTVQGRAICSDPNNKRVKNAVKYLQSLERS

T2: cyno CCL17 (Macaca fascicularis (cyno), UniProt Q8HYP9 24-94 (rhesus entry))
T2 construct: Biotinylated in the ELISA screens; also called cCCL17; Macaca fascicularis CCL17
T2 sequence: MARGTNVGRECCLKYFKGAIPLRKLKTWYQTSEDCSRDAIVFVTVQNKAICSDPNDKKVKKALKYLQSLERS

B1: C17F319 Fab variant W100a to F (Fab, V domains shown)
VH: EVQLVQSGAEVKKPGESLKISCKGSGYSFTSYWIGWVRQMPGKGLEWMGIIDPSDSDTRYSPSFQGQVTISADKSISTAYLQWSSLKASDTAMYYCARVGPADVFDSFDYWGQGTLVTVSS
VL: DIVMTQSPDSLAVSLGERATINCKSSQSVLLSPWNSNQLAWYQQKPGQPPKLLIYGASTRESGVPDRFSGSGSGTDFTLTISSLQAEDVAVYYCQQYYLIPSTFGQGTKVEIK
notes: also called W→F
B2: C17F319 Fab variant W100a to I (Fab, V domains shown)
VH: B1 VH with F105I
VL: B1 VL
notes: also called W→I
B3: C17F319 Fab variant W100a to Y (Fab, V domains shown)
VH: B1 VH with F105Y
VL: B1 VL
notes: also called W→Y
B4: C17F319 Fab variant W100a to T (Fab, V domains shown)
VH: B1 VH with F105T
VL: B1 VL
notes: also called W→T
B5: C17F319 Fab variant W100a to R (Fab, V domains shown)
VH: B1 VH with F105R
VL: B1 VL
notes: also called W→R

target: T1, human CCL17; assay: ranking Fab ELISA with bt-human and bt-cyno CCL17

Binding result, binds:
B1
B2
B3

target: T2, cyno CCL17; assay: ranking Fab ELISA with bt-human and bt-cyno CCL17

Binding result, binds:
B1
B4
B2
B5
B3
